Assay results reported in the supplement of paper PMC10126150.
± gives the standard deviation of the averaged measurements.

system: ATP; experiment: switch fluorescence ratio, 500 uM ATP over buffer (Cy3 cluster intensity, sum of 5 cycles each) (fold (ratio)); higher = stronger signal-on switching upon ATP binding; sequences stand for … in TCGTCGGCAGCGTCAGATGTGTATAAGAGACAGTTTTTTTTTTTTTTTTTTTTTTTTT…TC; conditions: aptamer strand: ATP DNA aptamer (quencher-CACCTGGGGGAGTATTGCGGAGGAAGG + anchor), 100 nM annealed; ATP concentration: 500 uM
How it was run: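 For every switch-domain sequence, the fluorescence ratio is the mean of per-cluster values, each being summed target-cycle Cy3 intensity over summed buffer-cycle Cy3 intensity. Clusters outside 100-1000 RFU were excluded. On a modified Illumina MiSeq flow-cell, the Cy3-labelled switching-strand clusters were annealed to 100 nM quencher-labelled ATP aptamer, imaged in selection buffer and then after 15 min with 500 uM ATP at 22 °C. Five such cycles were run, with NaOH stripping and re-annealing between them.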
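Note: ATP exposure 15 min at 22 °C before imaging.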

| Sequence | switch fluorescence ratio |
| --- | --- |
| CATACGTAGT | 1.01 ± 0.034 |
| CATTAGGCTG | 1.02 ± 0.015 |
| ATCGGGAGAC | 1.27 ± 0.21 |
| CCGTTTAGAT | 1.01 ± 0.011 |
| CGTTGTTGGA | 1 ± 0.025 |
| GTAGGGAAAG | 1.009 ± 0.0087 |
| CGGCTTACTT | 1.07 ± 0.011 |
| TGGGAAAGGC | 1.07 ± 0.061 |
| AGGGGGTAAT | 1.01 ± 0.049 |
| AAAGCAGGGA | 1.04 ± 0.043 |
| TTCTAAGGGA | 1.01 ± 0.023 |
| CGTTAGGGGG | 1.02 ± 0.041 |
| TGCGTTTTTA | 1 ± 0.043 |
| GAGTGGTAGG | 1.01 ± 0.021 |
| CGGCTGGTGG | 1.02 ± 0.016 |
| GTTTGGGACG | 0.9905 ± 0.0082 |
| AGGCTGTGGG | 1.03 ± 0.015 |
| TTCGGTTAGA | 1.02 ± 0.015 |
| TGGTGCTAAG | 1.03 ± 0.02 |
| AGATTATTTT | 1.01 ± 0.032 |
| CATGTGGGGG | 0.985 ± 0.027 |
| TGGGGGTCGC | 1.01 ± 0.019 |
| AGAGAATGG | 0.951 ± 0.023 |
| ATGGAATAAG | 0.998 ± 0.028 |
| CGAACTGTGG | 0.9673 ± 0.009 |

| Sequence | switch fluorescence ratio |
| --- | --- |
| GTGGCAGGTG | 2.53 ± 0.053 |
| CGGGTGGCCT | 1 ± 0.02 |
| TTTTGGCCAT | 0.995 ± 0.082 |
| GAGGGGGTGG | 1 ± 0.064 |
| TACTTTAATT | 1.04 ± 0.014 |
| ACAGTGTGTC | 0.994 ± 0.042 |
| TGGGAATGGG | 0.986 ± 0.011 |
| CCGGGCGTGG | 1.09 ± 0.025 |
| GGATCTTTTT | 1.03 ± 0.026 |
| CTTCTACCTG | 1.01 ± 0.035 |
| TTCGTTGAAT | 0.97 ± 0.024 |
| TGATGGCAAC | 1.11 ± 0.036 |
| TTTAGGTATT | 0.9598 ± 0.0042 |
| CATTTGGGCT | 1.03 ± 0.039 |
| TTGAGGGGAT | 1.004 ± 0.0059 |
| AAATAGGTGG | 0.996 ± 0.024 |
| GTATTAGCTG | 0.974 ± 0.0089 |
| ATTGTGGTCC | 1.007 ± 0.0082 |
| TTAAAGGGGT | 1.05 ± 0.1 |
| GGGGGGTGCA | 1.02 ± 0.018 |
| TTAGGTACCG | 1.012 ± 0.0016 |
| TTGAGGCCTT | 1.01 ± 0.022 |
| GCAGCTGGCT | 1.02 ± 0.11 |
| TGAGCGTTGG | 0.9987 ± 0.0062 |
| GGGTGATGTA | 0.996 ± 0.026 |

| Sequence | switch fluorescence ratio |
| --- | --- |
| ATTATGACGG | 0.982 ± 0.047 |
| ATATGTGTTT | 1.05 ± 0.018 |
| GCGCCGGAG | 1.0019 ± 0.00089 |
| TTTACGAGGG | 0.977 ± 0.015 |
| CGCTTGTTCG | 1.01 ± 0.027 |
| CATTGTAAAG | 1.02 ± 0.033 |
| CTTCAAAAGG | 1.68 ± 0.96 |
| GTGCTTGGCC | 1 ± 0.047 |
| GGCGTCGTAT | 0.9961 ± 0.0015 |
| CATTAATCAT | 0.995 ± 0.048 |
| GGTTAAGGCA | 1.022 ± 0.0034 |
| TTTAGGTTGA | 0.9957 ± 0.0012 |
| AGAGGATGTG | 1.01 ± 0.033 |
| TGGATGAGCT | 0.9968 ± 0.0088 |
| TGTTCCGGAC | 1.023 ± 0.0058 |
| TAGGTTGTGG | 0.994 ± 0.016 |
| TTGGGCAGTT | 0.98 ± 0.051 |
| TTATTTTAAA | 1.01 ± 0.024 |
| TGGGGGGGTA | 0.991 ± 0.026 |
| AGTGTGTGAA | 0.962 ± 0.01 |
| GGAATGAAGT | 1.07 ± 0.049 |
| CATGGCCAGG | 1.06 ± 0.079 |
| TTTGCTTTTG | 0.988 ± 0.021 |
| TGTGTCAATT | 0.9841 ± 0.0092 |
| TGGGGTCTAG | 0.969 ± 0.01 |

| Sequence | switch fluorescence ratio |
| --- | --- |
| GCAGAATGCA | 0.9861 ± 0.0024 |
| TGTGGCGATT | 1.02 ± 0.016 |
| GGGTGGGTGT | 1.05 ± 0.057 |
| TGAGTATTGG | 0.99 ± 0.027 |
| GCATTAGTAT | 0.935 ± 0.044 |
| TGTGTCATGG | 0.986 ± 0.011 |
| AAAACTTTAC | 1.2918 ± 0.00043 |
| GGAGTCACTG | 1.02 ± 0.017 |
| TTAGGGTGCA | 1.01 ± 0.025 |
| ACACCCAAGT | 1.21 ± 0.14 |
| TTGGGGTTTC | 0.998 ± 0.033 |
| AGCTTCTTAA | 0.992 ± 0.068 |
| TTCTGTTATC | 1.023 ± 0.0087 |
| CTGAAAAATT | 1.01 ± 0.078 |
| CCGGTATTTG | 1.021 ± 0.0077 |
| GGGATTCGAG | 0.987 ± 0.02 |
| CATAAATGTT | 1.02 ± 0.016 |
| TGTGAGGGGG | 1.01 ± 0.038 |
| AATTTTTCGG | 0.994 ± 0.042 |
| ATAGAGTTAG | 0.982 ± 0.011 |
| CAAAGGGATA | 1 ± 0.054 |
| ATTAAGGCCC | 0.988 ± 0.044 |
| GACTTTTATA | 0.996 ± 0.026 |
| TGTTTTTACC | 1.03 ± 0.059 |
| TTATGTTTGG | 1.02 ± 0.033 |
